In doi:10.1101/2024.05.28.596271:

What was measured:
[1] = target: FAM-labeled integrin β3 peptide (human); assay: fluorescence polarisation
[2] = target: FITC-labeled integrin β2 peptide representing both the JM and the NPxY/F regions (human); assay: fluorescence polarisation

Substance | fold increase in affinity over wild-type THD [1] [fold] | Kd [2] [µM] | Kd [1] [µM]
THD(D397K) (from UniProt P26039 1-405) (domain or fragment) | 2 | – | –
THD(D397R) (from UniProt P26039 1-405) (domain or fragment) | 2 | > 100 | –
talin head protein THD405d (residues 1-405, lacking F1-loop) (from UniProt P26039 1-405) (domain or fragment) | – | 31.9 | 4.4
